In patent US20240123068A1 (KITE PHARMA, published 2024):

Tests used:
[1] = target: FCGR1A (FCGR protein) of the membrane proteome array (human) (UniProt P12314); assay: validation titration, flow cytometry on transfected HEK-293T cells
[2] = target: Protein A (positive assay control transfected into cells) (UniProt P38507); assay: as above
[3] = target: T1, Human CD19, wild-type full-length protein expressed on cells (human, UniProt P15391 20-556); assay: scFv clone screen on NALM6 cells with and without CD19
T1 construct: also called WT CD19; CD19 wild type protein
T1 sequence: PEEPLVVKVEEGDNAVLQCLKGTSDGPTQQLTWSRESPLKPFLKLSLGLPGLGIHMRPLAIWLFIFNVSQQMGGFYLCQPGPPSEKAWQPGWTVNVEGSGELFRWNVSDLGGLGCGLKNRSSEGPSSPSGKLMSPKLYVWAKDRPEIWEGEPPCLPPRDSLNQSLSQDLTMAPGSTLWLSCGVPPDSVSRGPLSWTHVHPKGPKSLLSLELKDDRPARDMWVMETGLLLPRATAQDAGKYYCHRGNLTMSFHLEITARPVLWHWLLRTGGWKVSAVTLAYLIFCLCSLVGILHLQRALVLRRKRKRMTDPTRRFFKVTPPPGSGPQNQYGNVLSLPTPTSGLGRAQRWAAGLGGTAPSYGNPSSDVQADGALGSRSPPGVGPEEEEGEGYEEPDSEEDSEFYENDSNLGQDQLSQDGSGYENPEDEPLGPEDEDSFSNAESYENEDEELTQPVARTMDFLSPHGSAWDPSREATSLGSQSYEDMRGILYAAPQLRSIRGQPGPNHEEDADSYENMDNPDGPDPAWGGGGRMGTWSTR
From the text: To ensure that the up to (30) clones could recognize native CD19 expressed on tumor cells, the clones (scFv) were also screened against NALM6 tumor cell line positive (+) CD19 expression (NALM6 cell line⁺ CD19). CD19 knockout Nalm6 cell line (NALM6 cell line⁻ CD1; or CD19KO Nalm6 cell line) were used as a negative control for the selection. CD19KO Nalm6 cell lines used for the screen were engineered CRISPR knocked-out (KO) Nalm6-CD19KO cells. Clones that bound CD19⁺ NALM6 tumor cells, but not CD19-NALM6 tumor cells (CD19KO) were selected (Step 4).

[4] = target: T2, FITC-Labeled human CD19 protein (ACROBiosystem, Cat-CD9-HF251) (human, UniProt P15391 20-291, FITC label); assay: flow cytometry, premixed CD19-FITC protein and anti-CD19 PE (FMC63 clone) 1:1; FITC gate; competitor anti-CD19 PE (untransduced 0.21)
T2 construct: The text calls the same reagent CD19-FITC and CD19-GFP; also called CD19-FITC protein; CD19-FTC protein
T2 sequence (looked up): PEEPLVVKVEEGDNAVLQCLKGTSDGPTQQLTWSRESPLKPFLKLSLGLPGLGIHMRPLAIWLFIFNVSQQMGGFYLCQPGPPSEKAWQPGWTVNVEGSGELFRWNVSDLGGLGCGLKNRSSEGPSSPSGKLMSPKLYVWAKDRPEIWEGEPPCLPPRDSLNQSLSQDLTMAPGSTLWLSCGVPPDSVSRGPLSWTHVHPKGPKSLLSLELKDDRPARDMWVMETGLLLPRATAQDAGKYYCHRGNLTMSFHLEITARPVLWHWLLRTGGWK
Method: (§1) In the second set of assays, CAR T cells were co-incubated with the CD19-FTC protein and the anti-CD19 PE (FMC63 clones) at 1:1 or 1:3 ratio for 15 minutes. The CAR T cells were then stained and incubated for 20 minutes before imaging by flow cytometry. […] The CAR T cells were gated for anti-CD19 PE (anti-FMC63 antibody; idiotype antibody binding) and the CD19 binder CAR binder FITC (CD19-GFP detection).

[5] = target: T2, FITC-Labeled human CD19 protein …; assay: flow cytometry, ND539 CAR T cells day 9, CD19-FITC protein only (untransduced 0.85)
Method: At day 9 (D9) post-transduction, frozen ND539 CAR T cells were incubated with a fluorescently labeled recombinant CD19 protein. The CD19 CAR T cells were then analyzed by flow cytometry to determine the binding of the recombinant molecules to the CD19 CAR T cells. ND539 CAR T cells expressing a CAR comprising a FMC63 binder were used as control. Flow was gated for CD19 binder CAR.

[6] = target: T2, FITC-Labeled human CD19 protein …; assay: flow cytometry, CD19-FITC protein added after anti-FMC63 Ab PE; FITC gate; competitor anti-FMC63 Ab (untransduced 0.86)
Method: To determine whether the anti-FMC63 antibody and the CD19 binders could bind the same region on the CD19 protein, competitive assays were performed. In the first set of experiments, the CD19 CAR T cells were first incubated with 1 ul of anti-FMC63 antibody PE for 20 minutes. After the incubation period, 2 ul of the CD19-FITC protein was added to the CAR T cells, which were further incubated for another 20 minutes. The CAR T cells were washed and assessed by Flow cytometry. The CAR T cells were gated for anti-FMC63 antibody (idiotype antibody binding) and the CD19 CAR binders (CD19-GFP detection).

[7] = target: T1, Human CD19, wild-type full-length …; assay: cell-based or functional assay
[8] = target: T2, FITC-Labeled human CD19 protein …; assay: flow cytometry, premixed CD19-FITC protein and anti-CD19 PE (FMC63 clone) 1:3; FITC gate; competitor anti-CD19 PE (untransduced 0.21)
Method: as §1

FCGR1A (FCGR protein) of the membrane proteome array (human), sequence (P12314 16-374): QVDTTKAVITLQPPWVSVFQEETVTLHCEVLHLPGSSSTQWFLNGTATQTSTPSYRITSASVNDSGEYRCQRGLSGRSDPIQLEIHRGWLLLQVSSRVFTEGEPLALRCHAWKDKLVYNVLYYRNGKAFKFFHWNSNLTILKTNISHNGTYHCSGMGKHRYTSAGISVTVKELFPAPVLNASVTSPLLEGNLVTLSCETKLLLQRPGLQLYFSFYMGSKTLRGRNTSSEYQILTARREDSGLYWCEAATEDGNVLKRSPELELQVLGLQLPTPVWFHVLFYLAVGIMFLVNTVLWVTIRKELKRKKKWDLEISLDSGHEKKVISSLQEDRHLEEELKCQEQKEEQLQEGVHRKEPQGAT

isotype control article (Example 13)
MFI signal, fold above negative control [1]: > 45 fold | MFI signal, fold above negative control [2]: > 190 fold

B1: CD19 7 scFv (P5) (scFv)
scFv: DIQMTQSPSSLSASVGDRVTITCRASQSISKYLNWYQQKPGKAPKLLIYDASSLQSGVPSRFSGSGSGTDFTLTISSLQPEDFATYYCQQSYTIPLTFGQGTKVEIKGGGGSGGGGSGGGGSQVQLVQSGAEVKKPGSSVKVSCKASGGTFSSYAFSWVRQAPGQGLEWMGGIVPLFGAVEYAQKFQGRVTITADESTSTAYMELSSLRSEDTAVYYCAREKGFYRYFDHWGQGTLVTVSS
notes: also called 46; clone 46
binding result [3]: binds

B2: CD19 CAR comprising CD19 binder 52 (anti-CD19 scFv-BBz CAR) on T cells (other)
chain: QSVLTQPPSVSGAPGQRVTISCTGSSSNIGAGYDVHWYQQLPGTAPKLLIYGTKNRPSGVPDRFSGSKSGTSASLAITGLQAEDEADYYCQSYDVRLKGWVFGGGTKLTVLGGGGSGGGGSGGGGSQLQLQESGPGLVKPSETLSLTCTVSGGSITSSSYYWGWIRQPPGKGLEWIGSIYYTGTTYYNPSLKSRVTISVDTSKNQFSLKLSSVTAADTAVYYCARYVGLSGGFDYWGQGTLVTVSSTTTPAPRPPTPAPTIASQPLSLRPEACRPAAGGAVHTRGLDFACDIYIWAPLAGTCGVLLLSLVITLYCKRGRKKLLYIFKQPFMRPVQTTQEEDGCSCRFPEEEEGGCELRVKFSRSADAPAYKQGQNQLYNELNLGRREEYDVLDKRRGRDPEMGGKPRRKNPQEGLYNELQKDKMAEAYSEIGMKGERRRGKGHDGLYQGLSTATKDTYDALHMQALPPR
notes: also called CD19-52 CAR
Gated for CD19-CAR-FITC expression [4]: 14.5 mfi | Gated for CD19-CAR expression [5]: 30.4 mfi | Gated for CD19 CAR Expression [6]: 20.1 mfi | IL-2 & TNF-α, intracellular cytokine staining, Nalm6 stimulation, ND608 CAR T cells day 9 [7]: 37% | IL-2, intracellular cytokine staining, Nalm6 stimulation, ND608 CAR T cells day 9 [7]: 1.06% | TNF-α, intracellular cytokine staining, Nalm6 stimulation, ND608 CAR T cells day 9 [7]: 36.1% | Gated for CD19-CAR-FITC expression [8]: 5.56 mfi

B3: CD19 CAR comprising CD19 binder 45 (anti-CD19 scFv-BBz CAR) on T cells (other)
chain: DIQMTQSPSSLSASVGDRVTITCRASQDITRYLNWYQQKPGKAPKLLIYAASSLQSGVPSRFSGSGSGTDFTLTISSLQPEDFATYYCQQSYSYPPTFGQGTKVEIKGGGGSGGGGSGGGGSQVQLVESGGGVVQPGRSLRLSCAASGFTFRDYGMHWVRQAPGKGLEWVAVISYEGSNEYYADSVKGRFTISRDNSKNTLYLQMNSLRAEDTAVYYCARDRGFAGWYDYAFDPWGQGTLVTVSSTTTPAPRPPTPAPTIASQPLSLRPEACRPAAGGAVHTRGLDFACDIYIWAPLAGTCGVLLLSLVITLYCKRGRKKLLYIFKQPFMRPVQTTQEEDGCSCRFPEEEEGGCELRVKFSRSADAPAYKQGQNQLYNELNLGRREEYDVLDKRRGRDPEMGGKPRRKNPQEGLYNELQKDKMAEAYSEIGMKGERRRGKGHDGLYQGLSTATKDTYDALHMQALPPR
notes: also called CD19-45 CAR; 45 original
Gated for CD19-CAR-FITC expression [4]: 9.64 mfi | Gated for CD19-CAR expression [5]: 23.1 mfi | Gated for CD19 CAR Expression [6]: 17.7 mfi | IL-2 & TNF-α, intracellular cytokine staining, Nalm6 stimulation, ND608 CAR T cells day 9 [7]: 28.1% | IL-2, intracellular cytokine staining, Nalm6 stimulation, ND608 CAR T cells day 9 [7]: 1.16% | TNF-α, intracellular cytokine staining, Nalm6 stimulation, ND608 CAR T cells day 9 [7]: 25.2% | Gated for CD19-CAR-FITC expression [8]: 4.76 mfi

B4: CD19 14 scFv (P8) (scFv)
scFv: DIQMTQSPSSLSASVGDRVTITCRASQSISNYLNWYQQKPGKAPKLLIYAASSLQSGVPSRFSGSGSGTDFTLTISSLQPEDFATYYCQQAYSAPITFGQGTKVEIKGGGGSGGGGSGGGGSEVQLLESGGGLVQPGGSLRLSCAASGFTFGDYAMSWVRQAPGKGLEWVSAISRGGHGTYYADSVKGRFTISRDNSKNTLYLQMNSLRAEDTAVYYCARLVGYGLDYWGQGTLVTVSS
notes: also called 49; clone 49
binding result [3]: binds

B5: CD19 18 scFv (P11) (scFv)
scFv: QSVLTQPPSVSGAPGQRVTISCTGSSSNIGAGYDVHWYQQLPGTAPKLLIYGTKNRPSGVPDRFSGSKSGTSASLAITGLQAEDEADYYCQSYDVRLKGWVFGGGTKLTVLGGGGSGGGGSGGGGSQLQLQESGPGLVKPSETLSLTCTVSGGSITSSSYYWGWIRQPPGKGLEWIGSIYYTGTTYYNPSLKSRVTISVDTSKNQFSLKLSSVTAADTAVYYCARYVGLSGGFDYWGQGTLVTVSS
notes: also called 52; clone 52
binding result [3]: binds

B6: CD19 15 scFv (P9) (scFv)
scFv: DIQMTQSPSSLSASVGDRVTITCRASQPIRPYLNWYQQKPGKAPKLLIYDASSLQSGVPSRFSGSGSGTDFTLTISSLQPEDFATYYCQQSYSAPYTFGQGTKVEIKGGGGSGGGGSGGGGSEVQLLESGGGLVQPGGSLRLSCAASGFTFSSYAMSWVRQAPGKGLEWVSVISGGGANTYYADSVKGRFTISRDNSKNTLYLQMNSLRAEDTAVYYCARDWRYFDHWGQGTLVTVSS
notes: also called 50; clone 50
binding result [3]: binds

B7: CD19 10 scFv (P6) (scFv)
scFv: DIQMTQSPSSLSASVGDRVTITCRASQTISRYLNWYQQKPGKAPKLLIYAASSLQSGVPSRFSGSGSGTDFTLTISSLQPEDFATYYCQQSYRPPLTFGQGTKVEIKGGGGSGGGGSGGGGSEVQLLESGGGLVQPGGSLRLSCAASGFTFSSYAMSWVRQAPGKGLEWVSTISAGGHGTYYADSVKGRFTISRDNSKNTLYLQMNSLRAEDTAVYYCARGAGYFDYWGQGTLVTVSS
notes: also called 47; clone 47
binding result [3]: binds

B8: CD19 16 scFv (P10) (scFv)
scFv: QSVLTQPPSVSGAPGQRVTISCTGSSSNIGAGYDVHWYQQLPGTAPKLLIYGNNNRPSGVPDRFSGSKSGTSASLAITGLQAEDEADYYCQSYDVSLGVWVFGGGTKLTVLGGGGSGGGGSGGGGSQLQLQESGPGLVKPSETLSLTCTVSGGSISSPSYYWGWIRQPPGKGLEWIGSIYYTGATYYNPSLKSRVTISVDTSKNQFSLKLSSVTAADTAVYYCARYGPAGVGFDYWGQGTLVTVSS
notes: also called 51; clone 51
binding result [3]: binds

B9: CD19 23 scFv (P12) (scFv)
scFv: DIQMTQSPSSLSASVGDRVTITCRASQSIYSYLNWYQQKRGKAPKLLIYDASSLQSGVPSRFSGSGSGTDFTLTISSLQPEDFATYYCQQSYTAPPTFGQGTKVEIKGGGGSGGGGSGGGGSEVQLLESGGGLVQPGGSLRLSCAASGFTFSNYAMSWVRQAPGKGLEWVSAISESGHGTYYADSVKGRFTISRDNSKNTLYLQMNSLRAEDTAVYYCARLDWAGFDVWGQGTLVTVSS
notes: also called 53; clone 53
binding result [3]: binds

B10: CD19 11 scFv (P7) (scFv)
scFv: DIQMTQSPSSLSASVGDRVTITCRASQSISSYLNWYQQKPGKAPKLLIYAASSLQSGVPSRFSGSGSGTDFTLTISSLQPEDFATYYCQQTGAVPYTFGQGTKVEIKGGGGSGGGGSGGGGSEVQLLESGGGLVQPGGSLRLSCAASGFTFRDYAMSWVRQAPGKGLEWVSAISESGIDTYYADSVKGRFTISRDNSKNTLYLQMNSLRAEDTAVYYCARVAGYDSDSSTYYDYMDVWGQGTLVTVSS
notes: also called 48; clone 48
binding result [3]: binds
